{
  "source": "FireProtDB (doi:10.1110/ps.073137708)",
  "parents": {"B1": {"name": "H69A, Q7SID9 (parent)", "chain": "STGPVAPLPTPPNFPNDIALFQQAYQNWSKEIMLDATWVCSPKTPQDVVRLANWAHEHDYKIRPRGAMHGWTPLTVEKGANVEKVILADTMTHLNGITVNTGGPVATVTAGAGASIEAIVTELQKHDLGWANLPAPGVLSIGGALAVNAHGAALPAVGQTTLPGHTYGSLSNLVTELTAVVWNGTTYALETYQRNDPRITPLLTNLGRCFLTSVTMQAGPNFRQRCQSYTDIPWRELFAPKGADGRTFEKFVAESGGAEAIWYPFTEKPWMKVWTVSPTKPDSSNEVGSLGSAGSLVGKPPQAREVSGPYNYIFSDNLPEPITDMIGAINAGNPGIAPLFGPAMYEITKLGLAATNANDIWGWSKDVQFYIKATTLRLTEGGGAVVTSRANIATVINDFTEWFHERIEFYRAKGEFPLNGPVEIRCCGLDQAADVKVPSVGPPTISATRPRPDHPDWDVAIWLNVLGVPGTPGMFEFYREMEQWMRSHYNNDDATFRPEWSKGWAFGPDPYTDNDIVTNKMRATYIEGVPTTENWDTARARYNQIDPHRVFTNGFMDKLLP"}},
  "note": "“And” between values parts separate entries of the source, which are not always exact repeats. Equal values may be shown once.",
  "data": [
    {"variants_of": "B1", "conditions": "Brevibacterium sterolicum; pH 7.5; 15 °C; Urea; Fluorescence; Potassium phosphate 50 mM; reversible: Yes (partial); structure 2I0K; whole UniProt chain shown", "values": [
      {"variant": "H69A", "denaturant midpoint (higher = more stable)": "2.9 M and 3.5 M and 2.7 M", "unfolding free energy": "1.53 kcal/mol and 1.36 kcal/mol and 1.2 kcal/mol"}
    ]}
  ]
}
